Reference: US20240301031A1 (JIANGSU HENGRUI PHARMACEUTICALS, published 2024)

How the values were obtained:
[1] = target: T1, human BAFF (10056-HNCH, Sino biological) (human, UniProt Q9Y275 134-285); experiment: ELISA, BAFF coated
T1 construct: Bought protein

[2] = target: T2, human APRIL (5860-AP-010/CF, R&D Systems) (human, UniProt O75888 115-250, limits assumed); experiment: ELISA, APRIL coated
T2 construct: Bought protein
T2 sequence (looked up): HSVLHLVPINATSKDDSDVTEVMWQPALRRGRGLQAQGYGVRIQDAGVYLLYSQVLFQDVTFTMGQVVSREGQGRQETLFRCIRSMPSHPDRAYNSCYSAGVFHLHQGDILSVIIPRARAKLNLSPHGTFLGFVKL

[3] = target: T3, IL-23 (R&D Systems, 1290-IL-010) (UniProt Q9NPF7 20-189; P29460 23-328); experiment: cell-based or functional assay
T3 sequence (looked up) 1: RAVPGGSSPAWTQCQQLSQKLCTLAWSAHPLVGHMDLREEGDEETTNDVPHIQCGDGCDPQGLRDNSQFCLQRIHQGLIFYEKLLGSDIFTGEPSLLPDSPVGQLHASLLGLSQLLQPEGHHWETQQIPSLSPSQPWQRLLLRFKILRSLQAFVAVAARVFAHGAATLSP
T3 sequence (looked up) 2: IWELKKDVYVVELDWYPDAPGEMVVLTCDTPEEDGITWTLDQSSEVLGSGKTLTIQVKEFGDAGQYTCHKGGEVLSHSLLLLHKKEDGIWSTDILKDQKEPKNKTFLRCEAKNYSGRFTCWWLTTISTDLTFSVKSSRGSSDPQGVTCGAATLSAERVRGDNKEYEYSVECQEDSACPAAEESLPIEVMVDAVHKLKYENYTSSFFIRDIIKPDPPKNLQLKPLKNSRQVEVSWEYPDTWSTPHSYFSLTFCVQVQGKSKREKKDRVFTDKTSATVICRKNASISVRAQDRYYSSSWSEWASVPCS

[4] = target: T4, IL-12/23 p40 (Sino biological, 10052-H08H) (UniProt P29460 23-328); experiment: ELISA, IL-12/23 p40 coated, sample titrated
T4 construct: Bought protein
T4 sequence (looked up): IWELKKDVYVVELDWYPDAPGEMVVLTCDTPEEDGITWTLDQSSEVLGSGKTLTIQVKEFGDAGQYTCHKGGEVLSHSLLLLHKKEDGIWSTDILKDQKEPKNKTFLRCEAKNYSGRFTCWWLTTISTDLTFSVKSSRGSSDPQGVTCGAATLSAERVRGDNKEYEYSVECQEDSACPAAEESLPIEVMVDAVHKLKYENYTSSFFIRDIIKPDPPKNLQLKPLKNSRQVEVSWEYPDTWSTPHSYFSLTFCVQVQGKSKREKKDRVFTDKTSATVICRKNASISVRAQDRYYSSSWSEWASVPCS
Method: The binding activity of the antibodies or fusion proteins for BAFF, APRIL, and IL-12/23 p40 was assayed by the ELISA method (coating an antigen protein). The specific procedures were as follows:
A BAFF (Sino biological, 10056-HNCH), APRIL (R&D Systems, 5860-AP-010/CF), or IL-12/23 p40 (Sino biological, 10052-H08H) protein was diluted to 1 μg/mL with a PBS (BasalMedia, B320) buffer at pH 7.4, and added to a 96-well microplate (Corning, 3590) at 100 μL/well. The plate was incubated at 4° C. overnight. After the liquid was discarded, 300 μL of 5% skim milk (BD, 232100) diluted with PBS was added to each well for blocking, and the plate was incubated at 37° C. for 2 h. After the blocking was completed, the blocking solution was discarded, and the plate was washed 3 times with a PBST buffer (PBS at pH 7.4 containing 0.1% tween-20). 100 μL of test antibody or fusion protein solution diluted in a gradient was added to each well, and the plate was incubated at 37° C. for 1 h. After the incubation was completed, the plate was washed 3 times with PBST. […] The plate was washed 3 times with PBST. […] The plate was read for absorbance values at 450 nm on a microplate reader, the binding curves of the antibodies to an antigen were fitted with software, and the EC₅₀ values were calculated.

[5] = target: T4, IL-12/23 p40 (Sino biological, …); experiment: competition ELISA: biotin-labeled p40 to coated IL-12Rβ1
Method: A receptor protein was diluted to 2 μg/mL with PBS at pH 7.4 (BasalMedia, B320) and added to a 96-well microplate (Corning, 3590) at 100 μL/well. The plate was incubated at 4° C. overnight. After the liquid was discarded, 200 μL of 1% Casein blocking solution (Thermo, 37528) was added to each well for blocking, and the plate was incubated at 37° C. for 2 h. After the blocking was completed, the blocking solution was discarded, and the plate was washed 3 times with a PBST buffer (PBS at pH 7.4 containing 0.1% tween-20) for later use. A biotin-labeled ligand protein at a fixed concentration was mixed with the antibody or fusion protein diluted in gradient, pre-incubated at 37° C. for 30 min, and added to a blocked microplate. The plate was incubated at 37° C. for 1.5 h. After the incubation was completed, the plate was washed 3 times with PBST. 100 μL of streptavidin-HRP (Invitrogen, 434323, diluted at a ratio of 1:4000) was added to each well, and the plate was incubated at 37° C. for 1 h. The supernatant was removed, and the plate was washed 3 times with PBST. […] The plate was read for absorbance values at 450 nm on a microplate reader, the curves for the inhibition of the binding of the ligands to the receptors were fitted with software, and the IC₅₀ values were calculated. […]

[6] = target: T5, human IL-23 (CT048-H08H, Sino biological) (human, UniProt Q9NPF7 20-189; P29460 23-328); experiment: SPR (Biacore), sample captured on Protein A, antigen flowed, 1:1 fit
T5 construct: Bought heterodimer
T5 sequence (looked up) 1: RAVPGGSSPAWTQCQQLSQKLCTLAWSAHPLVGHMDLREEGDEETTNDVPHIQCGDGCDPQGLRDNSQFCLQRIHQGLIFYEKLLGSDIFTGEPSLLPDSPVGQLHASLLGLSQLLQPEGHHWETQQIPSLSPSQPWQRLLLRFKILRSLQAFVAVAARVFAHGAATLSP
T5 sequence (looked up) 2: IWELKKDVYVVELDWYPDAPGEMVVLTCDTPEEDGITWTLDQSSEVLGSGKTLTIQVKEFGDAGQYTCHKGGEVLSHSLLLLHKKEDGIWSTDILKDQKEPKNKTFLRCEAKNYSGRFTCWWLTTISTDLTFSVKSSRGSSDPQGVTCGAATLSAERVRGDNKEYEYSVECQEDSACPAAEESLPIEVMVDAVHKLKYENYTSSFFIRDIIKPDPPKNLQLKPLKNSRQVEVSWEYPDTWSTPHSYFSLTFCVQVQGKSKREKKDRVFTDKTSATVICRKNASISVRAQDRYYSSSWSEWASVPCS

[7] = target: T6, human IL-12 (CT050-H08H, Sino biological) (human, UniProt P29459 23-219; P29460 23-328); experiment: as above
T6 construct: Bought heterodimer
T6 sequence (looked up) 1: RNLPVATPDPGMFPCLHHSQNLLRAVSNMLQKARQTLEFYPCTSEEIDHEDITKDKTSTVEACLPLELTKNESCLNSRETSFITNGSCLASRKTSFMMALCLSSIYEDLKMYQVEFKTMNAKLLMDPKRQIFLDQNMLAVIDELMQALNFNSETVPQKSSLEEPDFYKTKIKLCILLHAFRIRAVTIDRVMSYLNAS
T6 sequence (looked up) 2: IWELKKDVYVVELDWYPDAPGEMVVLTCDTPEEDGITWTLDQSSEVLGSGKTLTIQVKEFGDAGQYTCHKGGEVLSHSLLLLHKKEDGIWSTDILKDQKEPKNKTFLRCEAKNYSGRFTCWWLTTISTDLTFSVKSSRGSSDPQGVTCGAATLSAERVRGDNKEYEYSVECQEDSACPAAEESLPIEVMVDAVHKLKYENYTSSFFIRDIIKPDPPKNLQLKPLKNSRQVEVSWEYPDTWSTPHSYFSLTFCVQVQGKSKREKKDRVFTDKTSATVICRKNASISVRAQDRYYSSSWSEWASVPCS

[8] = target: T7, cynomolgus monkey p40 (10215-CL, R&D Systems) (cynomolgus monkey); experiment: as above
T7 construct: Bought protein

B1: Ustekinumab (antibody, human IgG1, kappa, V domains shown)
VH: EVQLVQSGAEVKKPGESLKISCKGSGYSFTTYWLGWVRQMPGKGLDWIGIMSPVDSDIRYSPSFQGQVTMSVDKSITTAYLQWNSLKASDTAMYYCARRRPGQGYFDFWGQGTLVTVSS
VL: DIQMTQSPSSLSASVGDRVTITCRASQGISSWLAWYQQKPEKAPKSLIYAASSLQSGVPSRFSGSGSGTDFTLTISSLQPEDFATYYCQQYNIYPYTFGQGTKLEIKR
notes: Control antibody; also called anti-IL-12/IL-23 p40 subunit antibody ustekinumab
binding result [1]: no binding
binding result [2]: no binding
IC50 (nM) for the inhibition of IL-23-induced IL-17 secretion [3]: 2.49 nM
EC50 [4]: 0.786 nM
IC50 [5]: 2.08 nM
Kd [6]: 0.0844 nM
koff [6]: 0.000107 s⁻¹
kon [6]: 1.26e+06 M⁻¹ s⁻¹
Kd [7]: 0.0387 nM
koff [7]: 0.00018 s⁻¹
kon [7]: 4.66e+06 M⁻¹ s⁻¹
Kd [8]: 0.254 nM
koff [8]: 0.000236 s⁻¹
kon [8]: 931000 M⁻¹ s⁻¹
